Residue numbers refer to the chain shown, from its start.
Columns and labels:
[1] = target: T1, biotinylated human VWF cysteine knot (CK) domain construct (human, biotin on the in vitro biotinylation tag (residue not stated); one N-glycan); experiment: SPR, scFv captured on anti-SV5, pH 7.4
T1 construct: Disulfide-linked homodimer; also called biotinylated human VWF CK domain; human VWF CK domain construct
T1 chain: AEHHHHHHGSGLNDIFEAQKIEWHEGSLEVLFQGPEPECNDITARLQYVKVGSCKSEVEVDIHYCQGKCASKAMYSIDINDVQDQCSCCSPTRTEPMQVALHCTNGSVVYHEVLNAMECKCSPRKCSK

[2] = target: T2, His-StrepTagII-HRV3C-human VWF-CK-HA-tag (human); experiment: solution-phase equilibrium binding, free antibody by ELISA; apparent Kd; pH 5.5; mean ± SD, n=2
T2 construct: it begins with the VWF signal peptide, whose limits were marked only by underlining that is lost in the text, so it was not cut off; The CK domain forms disulfide-linked homodimers (CK dimer); also called recombinant human CK domain; Human CK
T2 chain: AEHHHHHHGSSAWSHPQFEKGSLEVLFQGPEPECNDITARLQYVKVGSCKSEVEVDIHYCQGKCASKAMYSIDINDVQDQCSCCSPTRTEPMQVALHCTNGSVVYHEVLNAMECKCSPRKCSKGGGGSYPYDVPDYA
Description: (§1) Following incubation for 30 min at room temperature to establish equilibrium, unbound antibody was quantified by ELISA using the immobilized human CK domain for capture and HRP-conjugated goat anti-human IgG Fc antibody for detection.
(§2) Following a single wash of the plate with 200 μL of wash buffer (TBS containing 0.05% (v/v) Tween-20 and 5 mM CaCl₂), the plate was blocked by incubation with 200 μL blocking buffer (TBS containing 5 mM CaCl₂ and 1% (w/w) BSA) for 1 hour at room temperature. […] Incubation lasted 3 min and was followed by 5-min incubation with 100 μL HRP-conjugated goat anti-human IgG Fc antibody for detection (1 mg/mL stock diluted 1:20,000 in blocking buffer). Before and after addition of a detection antibody, the plate was washed 5 times with 200 μL wash buffer. A chromogenic horseradish peroxidase (HRP) substrate (100 μL) was then added and following color development for 3 min, 100 μL ELISA stop solution were added to quench the reaction. Absorbance was measured at 450 nm with subtraction of the absorbance at 620 nm.
(§3) The standard curve prepared with free antibody was fitted to a Sigmoidal four-parameter logistic (4PL) model.

VWF in human plasma [3] = target: T3, VWF in human plasma (human, UniProt P04275 764-2813); experiment: collagen type III binding ELISA; human plasma (5 donors) 17 h 37 °C with 600 nM antibody; VWF bound to collagen relative to untreated plasma; ligand collagen type III
T3 construct: Endogenous VWF in donor plasma, not purified; multimeric; also called VWF in plasma; VWF in platelet rich plasma
Description: Following incubation, collagen binding was determined relative to untreated plasma.

VWF in human plasma [4] = target: T3, VWF in human plasma; experiment: VWF:FVIIIB enzyme immunoassay; human plasma (5 donors) 17 h 37 °C with 200 nM antibody; FVIII bound to captured VWF relative to untreated plasma; ligand FVIII
VWF in human plasma [5] = target: T3, VWF in human plasma; experiment: VWF:FVIIIB enzyme immunoassay; human plasma (5 donors) 17 h 37 °C with 600 nM antibody; FVIII bound to captured VWF relative to untreated plasma; ligand FVIII
VWF in human plasma [6] = target: T3, VWF in human plasma; experiment: flow cytometry, FITC anti-VWF on platelets; human PRP (2 donors), 0.5 mg/ml ristocetin, 600 nM antibody; relative to the same plasma without antibody; receptor platelet gp1b
Description: PRP was prepared by centrifuging the blood at 250 g for 15 min. […] Sample analysis was performed on a flow cytometer. Using forward (FSC) and sideward (SSC) scatter pattern, a gate was placed on the platelets.

human plasma-derived VWF = target: T4, human plasma-derived VWF (human, UniProt P04275 764-2813); experiment: solution-phase equilibrium binding, free antibody by ELISA; apparent Kd; pH 7.4; mean ± SD, n=2
T4 construct: multimeric; also called pd-VWF; Human VWF
Description: as §1, §2, §3

[7] = target: T2, His-StrepTagII-HRV3C-human VWF-CK-HA-tag; experiment: as above
Description: as §1, §2, §3

[8] = target: T5, His-StrepTagII-HRV3C-cyno VWF-CK-HA-tag (cynomolgus monkey); experiment: as above
T5 construct: it begins with the VWF signal peptide, whose limits were marked only by underlining that is lost in the text, so it was not cut off; The CK domain forms disulfide-linked homodimers; also called recombinant cyno CK domain; Cyno CK
T5 chain: T2 chain with N35S, A95P, E113Q, K115E
Description: as §1, §2, §3

[9] = target: T6, His-StrepTagII-HRV3C-cyno VWF-CK-HA-tag (cynomolgus monkey); experiment: solution-phase equilibrium binding, unbound antibody by ELISA
T6 construct: also called recombinant cyno CK domain; cyno CK
T6 chain: T2 chain with N35S, A95P, E113Q, K115E

[10] = target: T7, human plasma-derived von Willebrand Factor (VWF) (human, UniProt P04275 764-2813); experiment: VWF:FVIIIB enzyme immunoassay, FVIII binding capacity of plasma VWF after incubation with 200 or 600 nM antibody; FVIII as the partner tested
T7 construct: also called pd-VWF; human plasma-derived VWF

B1: 9312_Lib8_scFv (scFv, not shown: small tags and cut ends)
scFv: EVQLVESGGGLVQPGRSLRLSCAASGFSLSTYDMHWVRQAPGKGLEWVSAISSSGDTRDYADSVEGRFTISRDNAKNSLYLQMNSLRAEDTAVYYCARAFWGGDAFDIWGQGTMVTVSSSGGSTITSYNVYYTKLSSSGTDIQMTQSPSSLSASVGDRVTITCRASQTIGYWLAWYQQKPGKAPKLLIYGASTLEGGVPSRFSGSGSGTDFTLTISSLQPEDVATYYCQHSYSAPPTFGGGTKVEIK
binding result [1]: binds

B2: Lib1_P1_A6_scFv (scFv, not shown: small tags and cut ends)
scFv: QVQLVQSGAEVKKPGASVKVSCKVSGSTFSNYAIHWVRQAPGKGLEWMGGIVPLSGTAIYAQKFQGRVTMTEDTSTDTAYMELSSLKSEDTAVYYCARDQGESSGWYAIYYGMDVWGQGTTVTVSSSGGSTITSYNVYYTKLSSSGTDIQMTQSPSSVSASVGDRVTITCRASQGIGTWLAWYQQKPGKAPKLLIYGSSSRASGVPSRFSGSGSGTDFTLTISSLQPEDFANYYCQQSYGKPTFGGGTKVEIK
binding result [1]: binds

B3: 4761_Lib8_scFv (scFv, not shown: small tags and cut ends)
scFv: EVQLVESGGGLVQPGRSLRLSCAASGFTFSSDTMHWVRQAPGKGLEWVSAISSSGDHTDYADSVEGRFTISRDNAKNSLYLQMNSLRAEDTAVYYCAREGLRGYYFDYWGQGTLVTVSSSGGSTITSYNVYYTKLSSSGTDIQMTQSPSSLSASVGDRVTITCRASQGISGHLAWYQQKPGKAPKLLIYAASALQSGVPSRFSGSGSGTDFTLTISSLQPEDVATYYCQQSHSLPWTFGGGTKVEIK
binding result [1]: binds

B4: 5802_Lib4_scFv (scFv, not shown: small tags and cut ends)
scFv: QVQLQESGPGLVKPSQTLSLTCTVSGYSISSGDYHWSWIRQPPGKGLEWIGYINPSGSADYNPSLKSRVTMSVDTSKNQFSLKVNSVTAADTAVYYCARDGVAATYYYYYGMDVWGQGTTVTVSSSGGSTITSYNVYYTKLSSSGTEIVMTQSPATLSLSPGERATLSCRASHSIGSNLAWYQQKPGQAPRLLIYDATTRATGIPARFSGSGSGTDFTLTISSLEPEDFAVYYCQQAYSFPLTFGGGTKVEIK
binding result [1]: binds

B5: Lib1_P1_G3 OA (antibody, human IgG4 S228P, kappa, F234A L235A)
heavy: QVQLVQSGAEVKKPGASVKVSCKVSGYTSRQYIHWVRQAPGKGLEWMGWVTPIFGTTNYAQKFQGRVTMTEDTSTDTAYMELSSLKSEDTAVYYCAREWTGTTAFDIWGQGTLVTVSSASTKGPSVFPLAPCSRSTSESTAALGCLVKDYFPEPVTVSWNSGALTSGVHTFPAVLQSSGLYSLSSVVTVPSSSLGTKTYTCNVDHKPSNTKVDKRVESKYGPPCPPCPAPEAAGGPSVFLFPPKPKDTLMISRTPEVTCVVVDVSQEDPEVQFNWYVDGVEVHNAKTKPREEQFNSTYRVVSVLTVLHQDWLNGKEYKCKVSNKGLPSSIEKTISKAKGQPREPQVYTLPPSQEEMTKNQVSLSCAVKGFYPSDIAVEWESNGQPENNYKTTPPVLDSDGSFFLVSRLTVDKSRWQEGNVFSCSVMHEALHNHYTQKSLSLSLG
chain: ESKYGPPCPPCPAPEAAGGPSVFLFPPKPKDTLMISRTPEVTCVVVDVSQEDPEVQFNWYVDGVEVHNAKTKPREEQFNSTYRVVSVLTVLHQDWLNGKEYKCKVSNKGLPSSIEKTISKAKGQPREPQVYTLPPSQEEMTKNQVSLWCLVKGFYPSDIAVEWESNGQPENNYKTTPPVLDSDGSFFLYSRLTVDKSRWQEGNVFSCSVMHEALHNHYTQKSLSLSLG
light: DIQMTQSPSSVSASVGDRVTITCRASQDIGHYLAWYQQKPGKAPKLLIYAASNRASGVPSRFSGSGSGTDFTLTISSLQPEDFANYYCQQGYSAPYGFGGGTKVEIKRTVAAPSVFIFPPSDEQLKSGTASVVCLLNNFYPREAKVQWKVDNALQSGNSQESVTEQDSKDSTYSLSSTLTLSKADYEKHKVYACEVTHQGLSSPVTKSFNRGEC
Kd [2]: 32.3 nM
Collagen binding (% control) (VWF in human plasma [3]): 108 % control
VWF:FVIII level (% of control) (VWF in human plasma [4]): 84.5 % of control
VWF:FVIII level (% of control) (VWF in human plasma [5]): 85.8 % of control
Platelet binding (% control) (VWF in human plasma [6]): 101 % control
Kd (human plasma-derived VWF): 5.3 nM
Kd [7]: 4.3 nM
Kd [8]: 11 nM

B6: 399_Lib1 OA (antibody, human IgG4 S228P, kappa, F234A L235A)
heavy: QVQLVQSGAEVKKPGASVKVSCKVSGITFTSDYIHWVRQAPGKGLEWMGGMNPYSNKAIYAQKFQGRVTMTEDTSTDTAYMELSSLKSEDTAVYYCATGGLRIAARTSYFDYWGQGTLVTVSSASTKGPSVFPLAPCSRSTSESTAALGCLVKDYFPEPVTVSWNSGALTSGVHTFPAVLQSSGLYSLSSVVTVPSSSLGTKTYTCNVDHKPSNTKVDKRVESKYGPPCPPCPAPEAAGGPSVFLFPPKPKDTLMISRTPEVTCVVVDVSQEDPEVQFNWYVDGVEVHNAKTKPREEQFNSTYRVVSVLTVLHQDWLNGKEYKCKVSNKGLPSSIEKTISKAKGQPREPQVYTLPPSQEEMTKNQVSLSCAVKGFYPSDIAVEWESNGQPENNYKTTPPVLDSDGSFFLVSRLTVDKSRWQEGNVFSCSVMHEALHNHYTQKSLSLSLG
chain: B5 chain
light: DIQMTQSPSSVSASVGDRVTITCRASMDIAGSLAWYQQKPGKAPKLLIYDTSFRATGVPSRFSGSGSGTDFTLTISSLQPEDFANYYCQQYDNPPRLTFGGGTKVEIKRTVAAPSVFIFPPSDEQLKSGTASVVCLLNNFYPREAKVQWKVDNALQSGNSQESVTEQDSKDSTYSLSSTLTLSKADYEKHKVYACEVTHQGLSSPVTKSFNRGEC
notes: monovalent one-arm human IgG4
fold change in Kd, cyno CK against human CK [9]: < 2 fold

B7: Lib1_P1_A9 OA (antibody, human IgG4 S228P, kappa, F234A L235A)
heavy: QVQLVQSGAEVKKPGASVKVSCKVSGDTLSSYGIHWVRQAPGKGLEWMGGSIPSFGTAIYAQKFQGRVTMTEDTSTDTAYMELSSLKSEDTAVYYCTSEGPWLPFFSFDYWGQGTLVTVSSASTKGPSVFPLAPCSRSTSESTAALGCLVKDYFPEPVTVSWNSGALTSGVHTFPAVLQSSGLYSLSSVVTVPSSSLGTKTYTCNVDHKPSNTKVDKRVESKYGPPCPPCPAPEAAGGPSVFLFPPKPKDTLMISRTPEVTCVVVDVSQEDPEVQFNWYVDGVEVHNAKTKPREEQFNSTYRVVSVLTVLHQDWLNGKEYKCKVSNKGLPSSIEKTISKAKGQPREPQVYTLPPSQEEMTKNQVSLSCAVKGFYPSDIAVEWESNGQPENNYKTTPPVLDSDGSFFLVSRLTVDKSRWQEGNVFSCSVMHEALHNHYTQKSLSLSLG
chain: B5 chain
light: DIQMTQSPSSVSASVGDRVTITCRASQGISRNLAWYQQKPGKAPKLLIYKASSLASGVPSRFSGSGSGTDFTLTISSLQPEDFANYYCQQSFSTPVTFGGGTKVEIKRTVAAPSVFIFPPSDEQLKSGTASVVCLLNNFYPREAKVQWKVDNALQSGNSQESVTEQDSKDSTYSLSSTLTLSKADYEKHKVYACEVTHQGLSSPVTKSFNRGEC
notes: also called monovalent (one-arm) Lib1_P1_A9
fold change in Kd, cyno CK against human CK [9]: < 2 fold
VWF:FVIII level (% of untreated donor-matched plasma) [10]: > 80%

B8: 399_Lib1 OA (antibody, human IgG4 S228P, kappa, F234A L235A)
heavy: B6 heavy
chain: B5 chain
light: B6 light
Kd [7]: 13 nM
Kd [8]: 16.8 nM

B9: Lib1_P1_A5_scFv (scFv, not shown: small tags and cut ends)
scFv: QVQLVQSGAEVKKPGASVKVSCKVSGDTLSNYAIHWVRQAPGKGLEWMGGINPNAGTTIYAQKFQGRVTMTEDTSTDTAYMELSSLKSEDTAVYYCARDSSSWCPVGYYYYYMDVWGKGTTVTVSSSGGSTITSYNVYYTKLSSSGTDIQMTQSPSSVSASVGDRVTITCRASQSIGDFLAWYQQKPGKAPKLLIYDASHLQTGVPSRFSGSGSGTDFTLTISSLQPEDFANYYCQQTSTIPPTFGGGTKVEIK
binding result [1]: binds
